According to patent US20250188133A1, “CHIMERIC BACTERIOCINS AND METHOD FOR THE CONTROL OF PSEUDOMONAS” (priority 2022, published 2025):

Columns and labels:
Format in all cases: cell-based
P. aeruginosa PAO1 = test: agar disc-diffusion assay; conditions: strain PAO1; 0.3, 3 and 30 μg of protein spotted on discs on CAA agar lawn, overnight
Procedure: (§1) Overnight P. aeruginosa cultures grown in CAA medium were equalized till OD595=1.0 in CAA and diluted 100×. Sterile cotton swab was briefly submerged in diluted microbial suspension, removing the excess of liquid by pressing it against the container wall. The swab was used for evenly streaking bacteria on plates containing growth medium with CAA solid agar (1.5%). 6 mm diameter sterile Whatman discs were placed on soft-agar and 0.3-30 μg of chimeric pyocins were spotted to paper disks. The plates were incubated overnight at 37° C. and bacteriocin inhibition zones were observed.
(§2) Next, all 25 P. aeruginosa strains were subjected to agar disc-diffusion assay by spotting different amounts of purified pyocin S5 (0.3 μg, 3 μg and 30 μg) on bacteria lawns. Six P. aeruginosa strains were resistant to pyocin S5. Four of these six strains were pyocin S5 and immunity protein-encoding strains—PA14, PAO1, […] and NCTC 13921. Two cystic fibrosis isolates, 12-35708 and 12-29165 were also completely resistant to pyocin S5, despite the absence of S5, or S5 immunity protein coding genes. […] Turbid inhibition zones were detected when 3 μg and 30 μg of S5 were spotted on the lawn of these strains (Table 1, FIG. 3).

P. aeruginosa ATCC 19660 = test: agar disc-diffusion assay; conditions: strain ATCC 19660; 0.3, 3 and 30 μg of protein spotted on discs on CAA agar lawn, overnight
Procedure: as §1, §2

P. aeruginosa BR79 = test: agar disc-diffusion assay; conditions: strain BR79; 0.3, 3 and 30 μg of protein spotted on discs on CAA agar lawn, overnight
Procedure: as §1, §2

P. aeruginosa 13-18499 = test: agar disc-diffusion assay; conditions: strain 13-18499; 0.3, 3 and 30 μg of protein spotted on discs on CAA agar lawn, overnight
Procedure: as §1, §2

P. aeruginosa A19 = test: agar disc-diffusion assay; conditions: strain A19; 0.3, 3 and 30 μg of protein spotted on discs on CAA agar lawn, overnight
Procedure: as §1, §2

P. aeruginosa HP6 = test: agar disc-diffusion assay; conditions: strain HP6; 0.3, 3 and 30 μg of protein spotted on discs on CAA agar lawn, overnight
Procedure: as §1, §2

P. aeruginosa PA14 = test: agar disc-diffusion assay; conditions: strain PA14; 0.3, 3 and 30 μg of protein spotted on discs on CAA agar lawn, overnight
Procedure: as §1, §2

P. aeruginosa HP41 = test: agar disc-diffusion assay; conditions: strain HP41; 0.3, 3 and 30 μg of protein spotted on discs on CAA agar lawn, overnight
Procedure: as §1, §2

P. aeruginosa Bu002 = test: agar disc-diffusion assay; conditions: strain Bu002; 0.3, 3 and 30 μg of protein spotted on discs on CAA agar lawn, overnight
Procedure: as §1, §2

P. aeruginosa HP52 = test: agar disc-diffusion assay; conditions: strain HP52; 0.3, 3 and 30 μg of protein spotted on discs on CAA agar lawn, overnight
Procedure: as §1, §2

P. aeruginosa HP7 = test: agar disc-diffusion assay; conditions: strain HP7; 0.3, 3 and 30 μg of protein spotted on discs on CAA agar lawn, overnight
Procedure: as §1, §2

P. aeruginosa ATCC 29260 = test: agar disc-diffusion assay; conditions: strain ATCC 29260; 0.3, 3 and 30 μg of protein spotted on discs on CAA agar lawn, overnight
Procedure: as §1, §2

P. aeruginosa Pr335 = test: agar disc-diffusion assay; conditions: strain Pr335; 0.3, 3 and 30 μg of protein spotted on discs on CAA agar lawn, overnight
Procedure: as §1, §2

P. aeruginosa BL77 = test: agar disc-diffusion assay; conditions: strain BL77; 0.3, 3 and 30 μg of protein spotted on discs on CAA agar lawn, overnight
Procedure: as §1, §2

P. aeruginosa HP75 = test: agar disc-diffusion assay; conditions: strain HP75; 0.3, 3 and 30 μg of protein spotted on discs on CAA agar lawn, overnight
Procedure: as §1, §2

P. aeruginosa EY76 = test: agar disc-diffusion assay; conditions: strain EY76; 0.3, 3 and 30 μg of protein spotted on discs on CAA agar lawn, overnight
Procedure: as §1, §2

[1] = system: P. aeruginosa Boston 41501 (ATCC 27853); test: agar disc-diffusion assay; conditions: strain Boston; 0.3, 3 and 30 μg of protein spotted on discs on CAA agar lawn, overnight
Procedure: as §1, §2

P. aeruginosa NCTC 13921 = test: agar disc-diffusion assay; conditions: strain NCTC 13921; 0.3, 3 and 30 μg of protein spotted on discs on CAA agar lawn, overnight
Procedure: as §1, §2

P. aeruginosa UR78 = test: agar disc-diffusion assay; conditions: strain UR78; 0.3, 3 and 30 μg of protein spotted on discs on CAA agar lawn, overnight
Procedure: as §1, §2

P. aeruginosa BI80 = test: agar disc-diffusion assay; conditions: strain BI80; 0.3, 3 and 30 μg of protein spotted on discs on CAA agar lawn, overnight
Procedure: as §1, §2

P. aeruginosa HP40 = test: agar disc-diffusion assay; conditions: strain HP40; 0.3, 3 and 30 μg of protein spotted on discs on CAA agar lawn, overnight
Procedure: as §1, §2

P. aeruginosa NCTC 13437 = test: agar disc-diffusion assay; conditions: strain NCTC 13437; 0.3, 3 and 30 μg of protein spotted on discs on CAA agar lawn, overnight
Procedure: as §1, §2

P. aeruginosa HP1 = test: agar disc-diffusion assay; conditions: strain HP1; 0.3, 3 and 30 μg of protein spotted on discs on CAA agar lawn, overnight
Procedure: as §1, §2

P. aeruginosa strains = test: agar disc-diffusion assay, panel of 25 strains
Procedure: as §1, §2

B1: S5-Pflu095: chimeric bacteriocin SEQ ID NO: 9: pyocin S5 first segment fused to P. fluorescens Pflu095 killing domain (protein)
chain: MSNDNEVPGSMVIVAQGPDDQYAYEVPPIDSAAVAGNMFGDLIQREIYLQKNIYYPVRSIFEQGTKEKKEINKKVSDQVDGLLKQITQGKREATRQERVDVMSAVLHKMESDLEGYKKTFTKGPFIDYEKQSSLSIYEAWVKIWEKNSWEERKKYPFQQLVRDELERAVAYYKQDSLSEAVKVLRQELNKQKALKEKEDLSQLERDYRTRKANLEMKVQSELDQAGSALPPLVSPTPEQWLERATRLVTQAIADKKQLQTTNNTLIKNSPTPLEKQKAIYNGELLVDEIASLQARLVKLNAETTRRRTEKDKVRTEVVDIEAAIKFTSDFYAEAGVRFGDSASKLASDLADSAQGKKIRSADEAFKAFDKYKNELDKKFSVKDRAAAAKYIDSIDYEAIGKAATKFSKGLGYVGPVIDAKDSIIEFINSMESGDWKPFFLKLESIALGLAATAFVGIAFGFIATTPMGILAFAFIVAATGAAIDDNFAEKLNKFVSSL
modifications: S5-Pflu095
- Activity in agar disc-diffusion assay (P. aeruginosa PAO1): *** (activity detected with 0.3 μg of protein)
- Activity in agar disc-diffusion assay (P. aeruginosa ATCC 19660): * (activity detected only with 30 μg of protein)
- Activity in agar disc-diffusion assay (P. aeruginosa BR79): ** (activity detected with 3 μg of protein)
- Activity in agar disc-diffusion assay (P. aeruginosa 13-18499): ** (activity detected with 3 μg of protein)
- Activity in agar disc-diffusion assay (P. aeruginosa A19): *** (activity detected with 0.3 μg of protein)
- Activity in agar disc-diffusion assay (P. aeruginosa HP6): *** (activity detected with 0.3 μg of protein)
- Activity in agar disc-diffusion assay (P. aeruginosa PA14): ** (activity detected with 3 μg of protein)
- Activity in agar disc-diffusion assay (P. aeruginosa HP41): *** (activity detected with 0.3 μg of protein)
- Activity in agar disc-diffusion assay (P. aeruginosa Bu002): *** (activity detected with 0.3 μg of protein)
- Activity in agar disc-diffusion assay (P. aeruginosa HP52): ** (activity detected with 3 μg of protein)
- Activity in agar disc-diffusion assay (P. aeruginosa HP7): *** (activity detected with 0.3 μg of protein)
- Activity in agar disc-diffusion assay (P. aeruginosa ATCC 29260): *** (activity detected with 0.3 μg of protein)
- Activity in agar disc-diffusion assay (P. aeruginosa Pr335): *** (activity detected with 0.3 μg of protein)
- Activity in agar disc-diffusion assay (P. aeruginosa BL77): ** (activity detected with 3 μg of protein)
- Activity in agar disc-diffusion assay (P. aeruginosa HP75): * (activity detected only with 30 μg of protein)
- Activity in agar disc-diffusion assay (P. aeruginosa EY76): *** (activity detected with 0.3 μg of protein)
- Activity in agar disc-diffusion assay [1]: *** (activity detected with 0.3 μg of protein)
- Activity in agar disc-diffusion assay (P. aeruginosa NCTC 13921): *** (activity detected with 0.3 μg of protein)
- Activity in agar disc-diffusion assay (P. aeruginosa UR78): *** (activity detected with 0.3 μg of protein)
- Activity in agar disc-diffusion assay (P. aeruginosa BI80): *** (activity detected with 0.3 μg of protein)
- Activity in agar disc-diffusion assay (P. aeruginosa HP40): *** (activity detected with 0.3 μg of protein)
- Activity in agar disc-diffusion assay (P. aeruginosa NCTC 13437): * (activity detected only with 30 μg of protein)
- Activity in agar disc-diffusion assay (P. aeruginosa HP1): *** (activity detected with 0.3 μg of protein)
- inhibition on lawns of S5 producer strains HP6 and HP7 (P. aeruginosa strains; clinical isolates HP6 and HP7, S5 gave turbid zones with 3 μg and 30 μg): significantly larger and clearer than those formed by S5
- activity spectrum / profile in agar disc diffusion assay (P. aeruginosa strains; panel of 25 P. aeruginosa strains, in words): broadened activity spectrum in comparison to pyocin S5
- inhibition zones on lawns of S5-producing strains (P. aeruginosa strains; six pyocin S5 and immunity gene-positive strains (PA14, PAO1, HP6, HP7, ATCC 19660, NCTC 13921)): formed inhibition zones on the lawns of all six S5-producing strains
